Measured values: PMC3853298 (2013)

B1: mouse decorin core protein, wild type (residues 45-354) [modified: N-linked glycans (four consensus sites for N-linked glycosylation); N-linked glycans (four consensus sites for N-linked glycosylation)] [mouse] / rat tail type I collagen … (parent complex)
chain 1: APLALISMCPYRCQCHLRVVQCSDLGLDKVPWDFPPDTTLLDLQNNKITEIKEGAFKNLKDLHTLILVNNKISKISPEAFKPLVKLERLYLSKNQLKELPEKMPRTLQELRVHENEITKLRKSDFNGLNNVLVIELGGNPLKNSGIENGAFQGLKSLSYIRISDTNITAIPQGLPTSLTEVHLDGNKITKVDAPSLKGLINLSKLGLSFNSITVMENGSLANVPHLRELHLDNNKLLRVPAGLAQHKYIQVVYLHNNNISAVGQNDFCRAGHPSRKASYSAVSLYGNPVRYWEIFPNTFRCVYVRSAIQLGNYKAAA
chain 2: not shown
chain 3: not shown

Variants of: B1
Test: solid-phase binding assay (immobilized collagen, antibody-linked color reaction); decorin 2.5 µM (highest concentration); WT without collagen background est. 0.05; parent: 0.4; read off a plot

| response [OD 492] | Variant |
| --- | --- |
| ~0.28 | chain 1 Y11A, chain 1 R12A, chain 1 Q14A |
| ~0.18 | chain 1 R111E |
